B1: WD repeat-containing protein 1 (natural protein)
chain: MPYEIKKVFASLPQVERGVSKILGGDPKGDHFLYTNGKCVILRNIDNPAIADIYTEHAHQVVVAKYAPSGFYIASGDISGKLRIWDTTQKEHLLKYEYQPFAGKIKDIAWTEDSKRIAVVGEGREKFGAVFLWDTGSSVGEITGHNKVINSVDIKQTRPYRLATGSDDNCAAFFEGPPFKFKFTIGDHSRFVNCVRFSPDGNRFATASADGQIFIYDGKTGEKVCALGESKAHDGGIYAISWSPDSTHLLSASGDKTSKIWDVNVNSVVSTFPMGSNVLDQQLGCLWQKDHLLSISLSGYINYLDKNNPSKPLRVIKGHSKSIQCLTVHRNGGKSYIYSGSHDGHINYWDSETGENDSFSGKGHTNQVSRMTVNESEQLVSCSMDDTVRYTNLTLRDYSGQGVVKLDVQPKCVAVGPGGYTVVVCIGQIVLLKDQKKCFSIDNPGYEPEVVAVHPGGDTVAVGGTDGNVRVYSILASTLKDEGKLLEAKGPVTDVAYSHDGAFLAVCDASKVVTVFSVADGYSENNVFYGHHAKIVCLAWSPDNEHFASGGMDMMVYVWTLSDPETKVKIQDAHRLHHVSSLAWLDEHTLVTTSHDASVKEWTITY
B2: 14-3-3 protein beta/alpha (natural protein)
chain: MTMDKSELVQKAKLAEQAERYDDMAAAMKAVTEQGHELSNEERNLLSVAYKNVVGARRSSWRVISSIEQKTERNEKKQQMGKEYREKIEAELQDICNDVLELLDKYLILNATQAESKVFYLKMKGDYFRYLSEVASGENKQTTVSNSQQAYQEAFEISKKEMQPTHPIRLGLALNFSVFYYEILNSPEKACSLAKTAFDEAIAELDTLNEESYKDSTLIMQLLRDNLTLWTSENQGDEGDAGEGEN
B3: 14-3-3 protein theta (natural protein)
chain: MEKTELIQKAKLAEQAERYDDMATCMKAVTEQGAELSNEERNLLSVAYKNVVGGRRSAWRVISSIEQKTDTSDKKLQLIKDYREKVESELRSICTTVLELLDKYLIANATNPESKVFYLKMKGDYFRYLAEVACGDDRKQTIENSQGAYQEAFDISKKEMQPTHPIRLGLALNFSVFYYEILNNPELACTLAKTAFDEAIAELDTLNEDSYKDSTLIMQLLRDNLTLWTSDSAGEECDAAEGAEN
B4: 14-3-3 protein eta (natural protein)
chain: MGDREQLLQRARLAEQAERYDDMASAMKAVTELNEPLSNEDRNLLSVAYKNVVGARRSSWRVISSIEQKTMADGNEKKLEKVKAYREKIEKELETVCNDVLALLDKFLIKNCNDFQYESKVFYLKMKGDYYRYLAEVASGEKKNSVVEASEAAYKEAFEISKEHMQPTHPIRLGLALNFSVFYYEIQNAPEQACLLAKQAFDDAIAELDTLNEDSYKDSTLIMQLLRDNLTLWTSDQQDEEAGEGN
B5: Profilin-2 (natural protein)
chain: MAGWQSYVDNLMCDGCCQEAAIVGYCDAKYVWAATAGGVFQSITPVEIDMIVGKDREGFFTNGLTLGAKKCSVIRDSLYVDGDCTMDIRTKSQGGEPTYNVAVGRAGRVLVFVMGKEGVHGGGLNKKAYSMAKYLRDSGF
B6: CaM kinase-like vesicle-associated protein (natural protein)
chain: MPFGCVTLGDKKNYNQPSEVTDRYDLGQVIKTEEFCEIFRAKDKTTGKLHTCKKFQKRDGRKVRKAAKNEIGILKMVKHPNILQLVDVFVTRKEYFIFLELATGREVFDWILDQGYYSERDTSNVVRQVLEAVAYLHSLKIVHRNLKLENLVYYNRLKNSKIVISDFHLAKLENGLIKEPCGTPEYLAPEVVGRQRYGRPVDCWAIGVIMYILLSGNPPFYEEVEEDDYENHDKNLFRKILAGDYEFDSPYWDDISQAAKDLVTRLMEVEQDQRITAEEAISHEWISGNAASDKNIKDGVCAQIEKNFARAKWKKAVRVTTLMKRLRAPEQSGTAATQSASDAATPGAAGGAIAAAAAAAAAGGAASASGASATAATEGGAGCAAKSDDIASADRSATPATDGSATPATDGSVTPATDGSITPATDGSVTPATDRSATPATDGRATPATEESTVPATQSSALPAAKAAATPEPAVAQPDSTALEGATGQAPPSSKGEEATGCAQESQRVETS
B7: Guanine deaminase (natural protein)
chain: MCAARTPPLALVFRGTFVHSTWTCPMEVLRDHLLGVSDSGKIVFLEESSQQEKLAKEWCFKPCEIRELSHHEFFMPGLVDTHIHAPQYAFAGSNVDLPLLEWLNKYTFPTEQRFRSTDVAEEVYTRVVRRTLKNGTTTACYFGTIHTDSSLILAEITDKFGQRAFVGKVCMDLNDTVPEYKETTEESVKETERFVSEMLQKNYPRVKPIVTPRFTLSCTETLMSELGNIAKTHDLYIQSHISENREEIEAVKSLYPSYKNYTDVYDKNNLLTNKTVMAHGCYLSEEELNIFSERGASIAHCPNSNLSLSSGLLNVLEVLKHKVKIGLGTDVAGGYSYSMLDAIRRAVMVSNVLLINKVNEKNLTLKEVFRLATLGGSQALGLDSEIGNFEVGKEFDALLINPRASDSPIDLFYGDFVGDISEAVIQKFLYLGDDRNIEEVYVGGKQVVPFSSSV

Biological target: GST-LRRK2 WD40 G2385R (human) (UniProt Q5S007)
Sequence (Q5S007 whole entry G2385R, the tested form may be a part): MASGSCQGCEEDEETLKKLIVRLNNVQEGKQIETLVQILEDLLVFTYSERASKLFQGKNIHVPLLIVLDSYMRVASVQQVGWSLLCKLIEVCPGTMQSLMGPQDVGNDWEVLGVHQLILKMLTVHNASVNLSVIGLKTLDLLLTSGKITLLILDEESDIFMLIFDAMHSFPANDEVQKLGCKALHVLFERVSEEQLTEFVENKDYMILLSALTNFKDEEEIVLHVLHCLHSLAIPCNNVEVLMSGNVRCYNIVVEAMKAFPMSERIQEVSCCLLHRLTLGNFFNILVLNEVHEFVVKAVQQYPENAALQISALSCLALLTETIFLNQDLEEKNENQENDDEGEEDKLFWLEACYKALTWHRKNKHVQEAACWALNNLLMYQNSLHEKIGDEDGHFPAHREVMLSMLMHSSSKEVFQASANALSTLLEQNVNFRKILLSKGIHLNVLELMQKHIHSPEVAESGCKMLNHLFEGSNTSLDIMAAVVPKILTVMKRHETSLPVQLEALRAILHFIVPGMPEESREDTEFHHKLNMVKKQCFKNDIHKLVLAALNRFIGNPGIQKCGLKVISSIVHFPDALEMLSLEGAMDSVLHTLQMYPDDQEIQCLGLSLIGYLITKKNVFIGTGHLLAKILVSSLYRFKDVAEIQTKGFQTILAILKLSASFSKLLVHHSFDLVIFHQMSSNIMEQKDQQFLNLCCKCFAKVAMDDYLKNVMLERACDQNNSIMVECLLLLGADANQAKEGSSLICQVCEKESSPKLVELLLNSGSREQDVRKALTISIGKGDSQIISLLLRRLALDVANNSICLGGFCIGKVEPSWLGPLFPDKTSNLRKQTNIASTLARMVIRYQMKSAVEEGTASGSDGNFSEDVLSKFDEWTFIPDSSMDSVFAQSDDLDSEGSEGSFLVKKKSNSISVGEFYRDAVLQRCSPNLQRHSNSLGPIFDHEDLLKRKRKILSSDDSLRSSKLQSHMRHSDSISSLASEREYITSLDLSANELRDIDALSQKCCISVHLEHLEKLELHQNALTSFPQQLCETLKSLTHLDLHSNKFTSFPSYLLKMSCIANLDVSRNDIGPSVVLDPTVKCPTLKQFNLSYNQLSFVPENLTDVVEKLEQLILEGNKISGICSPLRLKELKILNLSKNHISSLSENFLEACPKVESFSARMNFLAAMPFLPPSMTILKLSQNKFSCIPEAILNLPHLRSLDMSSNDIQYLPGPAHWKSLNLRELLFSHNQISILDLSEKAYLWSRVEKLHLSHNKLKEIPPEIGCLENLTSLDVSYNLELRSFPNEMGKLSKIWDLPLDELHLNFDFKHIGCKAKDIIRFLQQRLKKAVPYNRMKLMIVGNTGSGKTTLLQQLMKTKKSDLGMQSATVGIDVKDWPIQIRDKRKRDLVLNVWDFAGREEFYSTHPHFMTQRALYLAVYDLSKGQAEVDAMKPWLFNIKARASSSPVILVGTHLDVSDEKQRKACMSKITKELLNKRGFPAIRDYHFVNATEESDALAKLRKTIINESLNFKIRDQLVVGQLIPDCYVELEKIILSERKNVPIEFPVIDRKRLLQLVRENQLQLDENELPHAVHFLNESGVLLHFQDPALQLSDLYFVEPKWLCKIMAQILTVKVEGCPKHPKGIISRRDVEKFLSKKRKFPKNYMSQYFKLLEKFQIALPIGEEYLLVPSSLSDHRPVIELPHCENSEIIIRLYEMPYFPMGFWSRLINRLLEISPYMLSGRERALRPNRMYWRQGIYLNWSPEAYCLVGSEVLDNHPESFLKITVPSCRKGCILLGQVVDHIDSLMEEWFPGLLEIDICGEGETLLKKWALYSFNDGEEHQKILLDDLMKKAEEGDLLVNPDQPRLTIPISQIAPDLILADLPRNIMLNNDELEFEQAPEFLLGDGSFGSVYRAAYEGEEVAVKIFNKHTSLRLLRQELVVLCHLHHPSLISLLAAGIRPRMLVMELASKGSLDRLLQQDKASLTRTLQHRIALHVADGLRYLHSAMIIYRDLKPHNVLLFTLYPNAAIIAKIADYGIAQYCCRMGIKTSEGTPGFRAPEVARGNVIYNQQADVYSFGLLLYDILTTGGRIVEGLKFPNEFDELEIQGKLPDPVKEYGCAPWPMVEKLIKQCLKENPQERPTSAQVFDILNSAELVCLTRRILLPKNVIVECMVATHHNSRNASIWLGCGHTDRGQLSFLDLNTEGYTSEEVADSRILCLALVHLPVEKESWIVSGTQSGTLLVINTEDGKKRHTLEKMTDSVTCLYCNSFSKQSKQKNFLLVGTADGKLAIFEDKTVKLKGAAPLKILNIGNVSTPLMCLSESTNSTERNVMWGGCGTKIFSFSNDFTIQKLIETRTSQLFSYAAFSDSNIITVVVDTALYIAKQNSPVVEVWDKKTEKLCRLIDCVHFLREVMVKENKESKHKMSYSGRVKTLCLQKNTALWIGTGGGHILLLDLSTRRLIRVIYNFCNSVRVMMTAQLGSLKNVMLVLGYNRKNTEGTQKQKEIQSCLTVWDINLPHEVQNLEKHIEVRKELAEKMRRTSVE
Assay: affinity purification with mass spectrometry; 5 µg GST fusion protein on glutathione-Sepharose incubated with adult mouse brain lysate or crude SV fraction (LP2) (1 mg protein) 2 h at 4 °C; washes 150 mM NaCl, 2 mM EDTA, 50 mM Tris-HCl, 0.2% Triton, pH 7.4; LC-MS/MS with label-free quantification, 4 samples per condition (GST-control, GST-WD40, GST-WD40-G2385R)

G2385R/WT (ratio of abundance in G2385R versus wild-type bait)	Binder
0.34	B1
0.37	B2
0.35	B3
0.52	B4
0.37	B5
0.58	B6
0.15	B7

From PMC5511190
